Data: paper PMC5469197, “ANGUSTIFOLIA, a Plant Homolog of CtBP/BARS Localizes to Stress Granules and Regulates Their Formation” (Frontiers in Plant Science, 2017)

Target: PROTEIN KINASE SU… PROTEIN (AIK1), Prot-A fusion (Arabidopsis thaliana)
Assay: co-IP; LUMIER in HEK293TN cells: Prot-A fusion co-transfected with Renilla luciferase fusion (AN always the luciferase fusion with the interactors); luciferase activity before (input) and after pulldown; percentage pulldown = pulldown/input x 100; empty vectors as negative control; positive if more than two times the background

Sequence of PROTEIN KINASE SU… PROTEIN (AIK1), Prot-A fusion (Arabidopsis thaliana) (main, as listed by the source): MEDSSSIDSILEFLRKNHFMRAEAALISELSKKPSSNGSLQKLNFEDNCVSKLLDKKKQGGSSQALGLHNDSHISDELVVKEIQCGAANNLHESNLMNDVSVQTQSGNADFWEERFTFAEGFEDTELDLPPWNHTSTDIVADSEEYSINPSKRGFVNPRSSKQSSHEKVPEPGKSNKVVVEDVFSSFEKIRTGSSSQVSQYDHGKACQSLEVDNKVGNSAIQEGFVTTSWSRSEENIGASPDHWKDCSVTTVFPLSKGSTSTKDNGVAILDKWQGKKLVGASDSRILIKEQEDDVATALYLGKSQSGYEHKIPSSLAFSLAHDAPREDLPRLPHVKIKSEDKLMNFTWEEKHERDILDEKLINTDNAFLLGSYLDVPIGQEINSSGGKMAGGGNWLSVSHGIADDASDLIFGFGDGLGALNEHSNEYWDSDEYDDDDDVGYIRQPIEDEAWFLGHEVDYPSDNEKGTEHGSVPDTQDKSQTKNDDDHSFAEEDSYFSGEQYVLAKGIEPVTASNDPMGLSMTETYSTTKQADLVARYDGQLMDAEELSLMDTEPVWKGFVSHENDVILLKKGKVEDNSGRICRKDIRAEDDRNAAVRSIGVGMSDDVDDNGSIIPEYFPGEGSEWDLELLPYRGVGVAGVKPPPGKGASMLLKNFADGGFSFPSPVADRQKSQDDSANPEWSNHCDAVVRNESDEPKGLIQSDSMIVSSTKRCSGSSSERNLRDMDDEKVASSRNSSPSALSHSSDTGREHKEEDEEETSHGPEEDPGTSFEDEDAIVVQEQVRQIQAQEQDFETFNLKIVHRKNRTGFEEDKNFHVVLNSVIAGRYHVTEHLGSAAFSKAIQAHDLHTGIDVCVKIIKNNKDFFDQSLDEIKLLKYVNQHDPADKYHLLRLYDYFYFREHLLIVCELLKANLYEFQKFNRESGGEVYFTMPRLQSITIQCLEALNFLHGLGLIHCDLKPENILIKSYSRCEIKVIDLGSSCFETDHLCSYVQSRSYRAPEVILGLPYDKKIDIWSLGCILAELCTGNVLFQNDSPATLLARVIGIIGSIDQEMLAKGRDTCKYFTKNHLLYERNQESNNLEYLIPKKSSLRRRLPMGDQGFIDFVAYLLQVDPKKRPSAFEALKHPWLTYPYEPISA

B1: AN^DOQ, Renilla luciferase fusion (LUMIER) (natural protein)
chain: MSKIRSSATMPHRDQPSPASPHVVTLNCIEDCALEQDSLAGVAGVEYVPLSRIADGKIESATAVLLHSLAYLPRAAQRRLRPHQLILCLGSADRAVDSTLAADLGLRLVHVDTSRAEEIADTVMALILGLLRRTHLLSRHALSASGWLGSLQPLCRGMRRCRGMVLGIVDRSVSARYLASRSLAFKMSVLYFDVPEGDEERIRPSRFPRAARRMDTLNDLLAASDVISLHCALTNDTVQILNAECLQHIKPGAFLVNTGSCQLLDDCAVKQLLIDGTIAGCALDGAEGPQWMEAWVKEMPNVLILPRSADYSEEVWMEIREKAISILHSFFLDGVIPSNTVSDEEVEESEASEEEEQSPSKHEKLAIVESTSRQQGESTLTSTEIVRREASELKESLSPGQQHVSQNTAVKPEGRRSRSGKKAKKRHSQQKYMQKTDGSSGLNEESTSRRDDIAMSDTEEVLSSSSRCASPEDSRSRKTPLEVMQESSPNQLVMSSKKFIGKSSELLKDGYVVALYAKDLSGLHVSRQRTKNGGWFLDTLSNVSKRDPAAQFIIAYRNKDTVGLRSFAAGGKLLQINRRMEFVFASHSFDVWESWSLEGSLDECRLVNCRNSSAVLDVRVEILAMVGDDGITRWID
interaction as percent of wild-type AN (% of wild-type AN): 1.6
